Measurements published in patent US5573924.

Assays:
[1] = target: human CD27 ligand (CD27L), membrane-bound (human); test: indirect binding assay on MP-1 cells (native CD27L): varying CD27/Fc, then 125I-mouse anti-human IgG; Scatchard analysis, low-affinity component
[2] = target: human CD27 ligand (CD27L), membrane-bound (human); test: indirect binding assay on MP-1 cells (native CD27L): varying CD27/Fc, then 125I-mouse anti-human IgG; Scatchard analysis, high-affinity component
[3] = target: human CD27 ligand (CD27L), membrane-bound (human); test: indirect binding assay on CV-1/EBNA cells transfected with cloned CD27L: varying CD27/Fc, then 125I-mouse anti-human IgG; Scatchard analysis, low-affinity component
[4] = target: human CD27 ligand (CD27L), membrane-bound (human); test: indirect binding assay on CV-1/EBNA cells transfected with cloned CD27L: varying CD27/Fc, then 125I-mouse anti-human IgG; Scatchard analysis, high-affinity component

Ka [1]: 1.83e+08 M⁻¹ | Ka [2]: 1.58e+09 M⁻¹ | Ka [3]: 1.2e+08 M⁻¹ | Ka [4]: 2.7e+09 M⁻¹
Substance: CD27/Fc fusion protein (from UniProt P26842)
